Reference: article PMC3486911 (PLoS Pathogens, 2012)

Experiments:
[1] = biological target: Factor H binding protein, variant group 1 (V1.p1), wild type (Neisseria meningitidis) (UniProt Q9JXV4); assay: SPR
[2] = biological target: Factor H binding protein, variant group 2 (V2.p21), wild type (Neisseria meningitidis) (UniProt E6MV22); assay: SPR
[3] = biological target: V2 fHbp Thr304Ala (Neisseria meningitidis); assay: SPR
[4] = biological target: V3 fHbp with Val272 replaced by Ala (Neisseria meningitidis); assay: SPR
[5] = biological target: V2 fHbp with Leu195 replaced by Ala (Neisseria meningitidis); assay: SPR
[6] = biological target: V2 fHbp with Ala at position 157 (Neisseria meningitidis) (UniProt E6MV22); assay: SPR
[7] = biological target: Factor H binding protein, variant group 3 (V3.p28), wild type (Neisseria meningitidis) (UniProt E6MV22); assay: SPR
[8] = biological target: V2 fHbp Thr304Glu (Neisseria meningitidis); assay: SPR
[9] = biological target: V2 fHbp with Val272 replaced by Ala (Neisseria meningitidis); assay: SPR
[10] = biological target: V2 fHbp with Glu313 replaced by Ala (Neisseria meningitidis); assay: SPR
[11] = biological target: V1 fHbp I311A (Neisseria meningitidis); assay: SPR
[12] = biological target: V1 fHbp E283A (Neisseria meningitidis); assay: SPR
[13] = biological target: V2 fHbp Glu283Ala (Neisseria meningitidis); assay: SPR
[14] = biological target: V3 fHbp P106A (Neisseria meningitidis); assay: SPR
[15] = biological target: V1 fHbp with Val272 replaced by Ala (Neisseria meningitidis); assay: SPR
[16] = biological target: Factor H binding protein, variant group 2 (V2.p21), wild type (UniProt E6MV22); assay: SPR
[17] = biological target: Factor H binding protein, variant group 3 (V3.p28), wild type (UniProt E6MV22); assay: SPR
[18] = biological target: T1, Factor H binding protein, variant group 1 (V1.p1), wild type (Neisseria meningitidis, UniProt Q9JXV4 20-274); assay: SPR; conditions: both partners purified
T1 construct: also called V1 fHbp; fHbp
T1 sequence: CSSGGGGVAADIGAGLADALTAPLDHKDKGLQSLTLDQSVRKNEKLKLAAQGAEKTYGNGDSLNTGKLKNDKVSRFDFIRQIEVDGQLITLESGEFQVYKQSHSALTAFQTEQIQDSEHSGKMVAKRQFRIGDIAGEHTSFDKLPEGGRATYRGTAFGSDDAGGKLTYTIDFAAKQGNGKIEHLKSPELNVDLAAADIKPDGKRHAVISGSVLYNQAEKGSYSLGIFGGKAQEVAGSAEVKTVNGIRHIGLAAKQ

[19] = biological target: T1, Factor H binding protein, variant group …; assay: not stated; dose response curve of mfH67 binding V1 fHbp (Fig. S2); conditions: both partners purified

## human fH67 with His337 and Arg341 replaced by the murine residues (domain or fragment)
[1]
  Kd: 7 µM

## human factor H CCP domains 6 and 7 (domain or fragment)
[1]
  Kd: 0.0022 µM
[2]
  Kd: 0.0019 µM
[3]
  fold increase in KD relative to wild type: 10 fold
[4]
  fold reduction in binding relative to wild type: > 5 fold
[5]
  fold reduction in binding relative to wild type: > 5 fold
[6]
  fold increase in binding relative to wild type: 5 fold
[7]
  Kd: 0.0028 µM
[8]
  fold increase in KD relative to wild type: 200 fold
[9]
  fold reduction in binding relative to wild type: > 5 fold
[10]
  fold reduction in binding relative to wild type: > 5 fold
[11]
  Kd: 1.3 µM
[12]
  fold increase in KD relative to wild type: 7 fold
[13]
  fold increase in KD relative to wild type: 40 fold
[14]
  fold increase in strength of binding relative to wild type: 100 fold
[15]
  fold reduction in binding relative to wild type: > 5 fold

## human factor H CCP domains 6 and 7 K351R; Y352K
[16]
  Kd: 44 µM
[17]
  Kd: 33 µM

B1: human fH67 with Lys351 and Tyr352 replaced by the murine residues (domain or fragment)
chain: TLKPCDYPDIKHGGLYHENMRRPYFPVAVGRKYSYYCDEHFETPSGSYWDHIHCTQDGWSPAVPCLRKCYFPYLENGYNQNHGRKFVQGKSIDVACHPGYALPKAQTTVTCMENGWSPTPRCI
[18]
  Kd: 2.8 ± 0.5 µM

B2: murine factor H CCP domains 6 and 7 (domain or fragment)
chain: LKPCEFPQFKYGRLYYEESLRPNFPVSIGNKYSYKCDNGFSPPSGYSWDYLRCTAQGWEPEVPCVRKCVFHYVENGDSAYWEKVYVQGQSLKVQCYNGYSLQNGQDTMTCTENGWSPPPKCI
notes: also called mfH67; mfH; source: cloned into pET-15b; expressed and purified using the method described previously [40]
[19]
  fold higher KD than hfH: > 10000 fold
